Experimental data taken from the nanobody polyreactivity screen of Harvey et al. (2022).

experiment: yeast display, Sf9 membrane polyspecificity reagent, FACS + sequencing; frameworks hold sequencing errors
Procedure, shortened: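 Galactose induction of a Saccharomyces cerevisiae BJ5465 synthetic nanobody display library ran 36–48 hours. The cells were then stained for 1 hour at 4 °C with 10% biotinylated, detergent-solubilized Sf9 membrane reagent, pulled down on streptavidin microbeads and FACS-sorted into low and high (top ~1%) gates on expression and reagent-binding fluorescence. Labels for polyreactivity follow the gate of origin.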

Row | Sequence | polyreactivity (PSR sort gate)
1 | QVQLVESGGGLLQAGGSLRLSCASSGRIFRWNAMGWYRQAPGKERELVAAISARGGSTYYADSVKGRFTISRDNAKNTVYLQMNSLKPEDTAVYYCAKVSSRGFDYWGQGTQVTVSS | high polyreactivity
2 | QVQLVESGGGLLQAGGSLRLSSAASGLTFAAYAMGWYRQAPGKEREFVAAITSSGGSTYYADSVKGRFTISRDNAKNSVYLQMNSLKPEDTAVYYCAAYYYDHYYWGQGTQVTVSS | high polyreactivity
3 | QVQLVESGGGLLQAGGSLRVSCAASGRTFLRYAMGWSIKAPGKERELVAGIDSSGGNTYYADSVKGRFTISRDTAKKYVYLQINSLKPEDTAVYYCAPRRSCKYRGGYYWGQGTQVTVSS | high polyreactivity
4 | QVQLVESGGGLLQAGRSLRLTCAASGRTFRAYAMGWYRQAPGKEMELVASISRRGGSTYYADSVKGRFTISRDNAKNSVYLQMNSLKPEDTAVSYCAASDKYLQYDYWGQGSQVTVSS | high polyreactivity
5 | QVQLVESGGGLLQSGGSLRLSCAASGFIFRSYAMGWYRQAPGKEREFVASISSRGGTTYYADSVKGRFTISRDNAKKTVYLQMNRLKPEDTAVYYCAADYFRWAGWGYEYWGQGSQVTVSS | high polyreactivity
6 | QVQLVESGGGLQQAGGSLRLSCDASGITFRQYTMGWCRQAPGKERELVAAITSSGRTYYADSVKGRFTISRDNAKNTVYLHMNSLKPEDTAVYYCAAETYYFGYGYWGQGTQVTVSS | high polyreactivity
7 | QVQLVESGGGLVEAGGRLRLSCAAYGRIFYYNGMGCYRQAPGKERELVAAITSGGSTNYADSEKGRFTISRDNAKNNVYLQMKSVKPEDTAVSYCAADYYYYVAGVHFDYWGQGTQVTVSS | low polyreactivity
8 | QVQLVESGGGLVEAGGSLRLSCAASASIFGLNAMGWYRQAPGKEREFVAAISWSDGSTYYADSVKGRFTISRDNAKNTVYLQMNSLKPEDTAVYYCSKATEYYAESDDYDYWGQGTQVTVSS | low polyreactivity
9 | QVQLVESGGGLVEAGGSLRLSCAASGRTFSPNTMGWYRQAPGKEREFVAAITASGDSTYYADSVKGRFTISRDNAKNTVYLQMNSLKPEDTAVYYCATDSNWYWGFNYWGQGTQVTVSS | low polyreactivity
10 | QVQLVESGGGLVEAGGSLRLSCAASGYIFKSYVMGWYRQAPGTERELVAAITWSGGSTYYADSVNGRFTISRDNAKNTVYLQMNSLNPEDTAVYYCAAYPRRYRTTYDYWGQGTQVTVSS | high polyreactivity
11 | QVQLVESGGGLVEAGGSLRLSCDASGRIFYSNAMGWSRQAPGKERELVATITRSSGITYYADSVKGRFTISRDNAKNTVYLQMNSLKPEDTAVYYCAAPWYYYGYWGQGTQVTVSS | high polyreactivity
12 | QVQLVESGGGLVHAGGCLRLSCAASGRTFAPYAMGWYRLAPGKERELVAAINSGDRTYYADSVKGRFTLSRDNAKNTVNLQINSLKPEDTSGYYCSSDALAGQYTWYKYDYWGQGSQVTVSS | low polyreactivity
13 | QVQLVESGGGLVHAGGRLRLSCAASGSIFDYYAMGWSRPAPGKERELVADNTSGGSTNYADSVKGRFTISRDNAKNTVYLQMNSLKPEDTAVYYCATRIGYSDWPDGVWDLDDSEYYYWGQGTQVTVSS | low polyreactivity
14 | QVQLVESGGGLVHAGGRLRLSCAASGSMFYPYAMGWYRQAPGKERELVAAISRSGGSTRYADSVKGRFTISRDHAQNTVYLQMNSLKPEDTAVYYCAVRVFYGVGLIGYYYWGQGSQVTVSS | high polyreactivity
15 | QVQLVESGGGLVHAGGSHRLSCAATGRIFDANARGGYRQAPGKERELVAVISSRGGSTYYADSVKGRFTISRDNAKNTVYLQMNSLKPEDTAVYYCAKGFSVAGYDYWGQGTQVTVSS | low polyreactivity
16 | QVQLVESGGGLVHAGGSIRLSCAASGRIFGYYTMGWYRQAPGKERELVAAIRGNGGSTYYADSVKGLFTISRDNAKNTVYLQMHSLKPQDTAVYYCAATDISYRRVPYGRKKQYDYWGQGTQVTVSS | high polyreactivity

Row | Sequence | polyreactivity (PSR sort gate)
17 | QVQLVESGGGLVHAGGSIRLSCAASGRTFAYNDMGWYTQAPGTERELVAAISWSDGTTYYADSVKGRFTISRDNAKNPVYLQMHCLKPEDTAVYYCAAESYPSEVASYVSEYDYWGQGTQVTVSS | low polyreactivity
18 | QVQLVESGGGLVHAGGSLLLSCAASGRTFRTYTMGLYRQAPGKERELVAVITWTGGSTYYADSVKGRFTISRDNAKNTVYIQMNSLKPEDTAVYYCAARIITFSNVYNGYEYWGQGTQVTVSS | high polyreactivity
19 | QVQLVESGGGLVHAGGSLRLICAASGSIFQSYDMGWYRQAPGKERELVAAISWSGSTTYYADSVKGRFTISRDNAKNTVYLQMNSLKPEDTAVYYCAVDSNPPDWWAVIYGYWGQGTQVTVSS | low polyreactivity
20 | QVQLVESGGGLVHAGGSLRLSCAASGFIFTKNAMGWYRQAPGKDRELVAAITSSGGNTYYADSVKGRFTISRDNAKNTVYLQMNSLKPEDTAVYYCAASRFLRMYWGQGTQVTVSS | high polyreactivity
21 | QVQLVESGGGLVHAGGSLRLSCAASGFTFGYYALGWYRQAPGKERELVASISRSGGSTNYADSVKGRFTISRDNAKYTVYFQMNRLKPEDTAVYYCNKRVNTYRSGSRRYDYWGQGTQVTVSS | high polyreactivity
22 | QVQLVESGGGLVHAGGSLRLSCAASGIIFRFYAMGWYRQAPAKERELVAAISSGGSTYYADSVKGRFTISRDNAKNTVYLQMIRLKPEDTAVYYCNARVRYKRTVRYGYWGQGTQVTVSS | high polyreactivity
23 | QVQLVESGGGLVHAGGSLRLSCAASGLIFHHNAMGWYRQAPGKERELVAAISRSAGSTYYADSVKGRFTISRDNAKNTVYLQMNSLKPEDTAVYYCAKRPTPTSKYDTVGYGYWGQGTQVTVSS | low polyreactivity
24 | QVQLVESGGGLVHAGGSLRLSCAASGNTFWPYAMGWYRQAPGKERELVAAINYSGTRTYYSDSVKGRFTISRDNAKNTVYLQMNSLKPEDTAVYYCAKATSPPGTTAGGYDYWGQGTQVTVSS | low polyreactivity
25 | QVQLVESGGGLVHAGGSLRLSCAASGRIFGPYAMGWYRQAPGKERELVAAISRSGSTTYYAVSVKGRFTISRDNAKNTVYLQMNSLKPDDTAVYYCNGRRYRVVQSKPCDYWGQGTQVTVSS | high polyreactivity
26 | QVQLVESGGGLVHAGGSLRLSCAASGRIFRIYAMGWYRQAPGKERELVAAISRGGRTNYADSVKGRFTISRDNAKNTVYLQMNSLKPEDTAVYYCNATSNWGPTKVRFNYWGQGTQVTVSS | high polyreactivity
27 | QVQLVESGGGLVHAGGSLRLSCAASGRIFTAYAMGWYRQAPGKERELVASISTSGGRTYYADSVKGLFTISRDNAKNTVYLQMNSLIPEDTAVYYFAADFESYSRYYDGYDYWGQGTQVTVSS | high polyreactivity
28 | QVQLVESGGGLVHAGGSLRLSCAASGRIFTTNAMGWYRQAPGKERELVASITRSGSTYYADSVKGRFTISRDNAKNTVYLQMNSLKPEVTAVYYCAAYAYIFLDWGGYPYYLYEYDYWGQGTQVTVSS | low polyreactivity
29 | QVQLVESGGGLVHAGGSLRLSCAASGRIFTYYGMGWYRQAPGKERELVAAITWNGGSTYYADSVKGRFTISRDNAKNTVYLQMNSLKPEDTAVYYCNAVVYARSGGAQYGYWGQGTQVTVSS | low polyreactivity
30 | QVQLVESGGGLVHAGGSLRLSCAASGRIFYYYTKGWYRQEPGKERELVAAISSGGSTNYADSVKGRFTISRDNAKNTVYLQMNSLKPEHTAVYYWARYGGYWSLKYDYWGQGTQVTVSS | high polyreactivity
31 | QVQLVESGGGLVHAGGSLRLSCAASGRTFDIYAMGWYRQAPGKERELVAAISSGGSTYYADSVKGRFRISRDNAKKTVYLQKNSLKPEDTAVYYCAVRWYDQVSRRGIGYYWGQGTQVTVSS | low polyreactivity
